# Laboratory results as given in US20030235863A1 (published 2003).
# No end group written: not given here. *: point of attachment. For = O=C*
# B1: formyl peptide receptor (FPR), wild type, solubilized in dodecyl maltoside (receptor, human, UniProt P21462 1-350, looked up)
# chain: METNSSLPTNISGGTPAVSAGYLFLDIITYLVFAVTFVLGVLGNGLVIWVAGFRMTHTVTTISYLNLAVADFCFTSTLPFFMVRKAMGGHWPFGWFLCKFVFTIVDINLFGSVFLIALIALDRCVCVLHPVWTQNHRTVSLAKKVIIGPWVMALLLTLPVIIRVTTVPGKTGTVACTFNFSPWTNDPKERINVAVAMLTVRGIIRFIIGFSAPMSIVAVSYGLIATKIHKQGLIKSSRPLRVLSFVAAAFFLCWSPYQVVALIATVRIRELLQGMYKEIGIAVDVTSALAFFNSCLNPMLYVFMGQDFRERLIHALPASLERALTEDSTQTSDTATNSTLPSAEVELQAK
# notes: Crude detergent extract of membranes, not purified; the extract holds endogenous G protein subunits; also called wild type receptor; soluble FPR
# B2: FPR-GFP fusion protein (receptor)
# chain: METNSSLPTNISGGTPAVSAGYLFLDIITYLVFAVTFVLGVLGNGLVIWVAGFRMTHTVTTISYLNLAVADFCFTSTLPFFMVRKAMGGHWPFGWFLCKFVFTIVDINLFGSVFLIALIALDRCVCVLHPVWTQNHRTVSLAKKVIIGPWVMALLLTLPVIIRVTTVPGKTGTVACTFNFSPWTNDPKERINVAVAMLTVRGIIRFIIGFSAPMSIVAVSYGLIATKIHKQGLIKSSRPLRVLSFVAAAFFLCWSPYQVVALIATVRIRELLQGMYKEIGIAVDVTSALAFFNSCLNPMLYVFMGQDFRERLIHALPASLERALTEDSTQTSDTATNSTLPSAEVELQAKAAA
# notes: Solubilized in dodecyl maltoside from membranes of transfected cells; also called R^F; fluorescent formyl peptide receptor; not shown: Clontech's EGFP (enhanced green fluorescent protein), from its first amino acid
# Assays:
# [1] = biological target: β1H6γ2 dimer on DCNi beads; test: flow cytometry, βγ-coated DCNi beads, 1 µM GTP (bar 6) against GTPγS (bar 2)
# [2] = biological target: T1, C-terminal hexahistidine-tagged FPR (human, UniProt P21462 1-350); test: soluble receptor in detergent, dissociation of L^F
# T1 construct: Construct limits and junction are not described; also called FPR:C-H6; C-H6:FPR
# T1 sequence: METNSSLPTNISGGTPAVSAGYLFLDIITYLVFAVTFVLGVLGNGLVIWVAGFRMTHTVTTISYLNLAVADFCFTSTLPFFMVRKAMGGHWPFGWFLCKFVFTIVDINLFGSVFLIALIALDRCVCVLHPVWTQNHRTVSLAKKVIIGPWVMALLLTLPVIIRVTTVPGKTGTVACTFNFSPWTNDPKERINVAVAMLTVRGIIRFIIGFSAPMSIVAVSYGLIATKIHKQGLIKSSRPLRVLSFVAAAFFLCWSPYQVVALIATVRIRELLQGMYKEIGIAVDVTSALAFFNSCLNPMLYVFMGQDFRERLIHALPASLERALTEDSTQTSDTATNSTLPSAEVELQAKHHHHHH
# [3] = biological target: T2, N-terminal hexahistidine-tagged FPR (human, UniProt P21462 1-350); test: soluble receptor in detergent, dissociation of L^F
# T2 construct: Construct limits and junction are not described; also called N-H6:FPR
# T2 sequence: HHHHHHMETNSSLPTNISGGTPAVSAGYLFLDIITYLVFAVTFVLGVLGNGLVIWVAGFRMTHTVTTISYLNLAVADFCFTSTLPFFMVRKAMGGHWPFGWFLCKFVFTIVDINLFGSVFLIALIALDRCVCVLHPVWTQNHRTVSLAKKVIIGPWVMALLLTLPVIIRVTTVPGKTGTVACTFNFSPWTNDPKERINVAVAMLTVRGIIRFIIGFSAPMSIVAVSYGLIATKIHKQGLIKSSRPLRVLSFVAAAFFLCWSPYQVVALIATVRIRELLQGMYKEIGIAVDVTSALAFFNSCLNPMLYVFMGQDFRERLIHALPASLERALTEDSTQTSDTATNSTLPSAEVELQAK
# [4] = biological target: T1, C-terminal hexahistidine-tagged FPR; test: receptor on DCNi beads, flow cytometry with rapid mixer, anti-FITC antibody added
# [5] = biological target: B1; test: spectrofluorimetry, soluble FPR in dodecyl maltoside, free ligand quenched by anti-FITC antibody
# Excerpt: For accurate analysis, and for kinetic dissociation analysis, the percent of the control curve corresponding to the percent free ligand was subtracted from the receptor-containing curve.
# The free ligand and bound ligand were discriminated using an antibody to fluorescein that rapidly quenched only the free ligand.
# [6] = biological target: T1, C-terminal hexahistidine-tagged FPR; test: soluble receptor in detergent, spectrofluorimetry
# Experimental: (§1) Spectrofluorimetric Analysis of Soluble Complexes. Fluorescence was measured with an SLM 8000 spectrofluorimeter (SLM Instruments, Inc.) using the photon counting mode. The sample holder was fitted with a cylindrical cuvette adapter, which allowed the use of 200 μl samples in 7mm ×45 mm cylindrical cuvettes (Sienco; Wheat Ridge, Colo.), stirred with 2×5 mm stir bars (Bel-Art). Excitation was at 490 nm, and stray light was reduced with a 490+/−10 nm filter (Corion; now part of Spectra-Physics, Franklin, Mass.). Emission was monitored using a 520+/−10 nm filter (Corion) and a 500 nm long-pass filter (Kopp; Pittsburg, Pa.). Additions to samples during kinetic measurements were made through an injection port on the top of the sample holder with 10 μl glass syringes (Hamilton; Reno, Nev.). […] For accurate analysis, and for kinetic dissociation analysis, the percent of the control curve corresponding to the percent free ligand was subtracted from the receptor-containing curve.
# [7] = biological target: B1; test: soluble receptor in detergent, spectrofluorimetry
# Experimental: as §1
# [8] = biological target: T2, N-terminal hexahistidine-tagged FPR; test: soluble receptor in detergent, spectrofluorimetry
# Experimental: as §1
# [9] = biological target: T1, C-terminal hexahistidine-tagged FPR; test: receptor on DCNi beads, flow cytometry
# [10] = biological target: T2, N-terminal hexahistidine-tagged FPR; test: receptor on DCNi beads, flow cytometry
# [11] = biological target: B1; test: soluble receptor in detergent, spectrofluorimetry, dissociation of L^F
# Experimental: as §1
# FPR-GFP fusion protein [12] = biological target: B2; test: flow cytometry, LRG assembly on DCNi G beads with 30 nM FPR-GFP
# Experimental: Standard LRG Assembly Assay. […] Each mixture was mixed by pipetting to ensure a uniform starting suspension of the beads in 96 V-well plates (Costar), and then mixed at low speed on a vortex mixer at 7° for two hours. The 10 μl assays were individually brought to 200 μl with 0.1% dodecyl maltoside in buffer A in 12×75 mm tubes for flow cytometric measurement of fluorescence of the beads. LRG assembly was defined as the difference between fluorescence without GTPγS and that with GTPγS. All determinations were done in duplicate.
# [13] = biological target: B1; test: spectrofluorimetric competition with L^F for soluble FPR; IC50 converted to Kd
# Experimental: as §1
# (§2) Comparison of LR and LRG Affinities for a Family of Non-fluorescent Ligands.
# FPR-GFP fusion protein [14] = biological target: B2; test: Kd from competition on soluble FPR divided by EC50 of LRG assembly with FPR-GFP
# Excerpt: as §2
# [15] = biological target: G protein heterotrimer αi3β1H6γ2 on DCNi beads; test: flow cytometry, standard LRG assembly on nickel beads
# Gαi3β4γ2H6-FLAG = biological target: T3, Gαi3β4γ2H6-FLAG; test: flow cytometry, LRG assembly on anti-FLAG beads
# T3 construct: Held on streptavidin-coated polystyrene beads through a biotinylated anti-FLAG antibody; also called αi3β4γ2-FLAG-H6
# [16] = biological target: G protein heterotrimer αi3β1H6γ2 on DCNi beads; test: flow cytometry, L^FRG assembly on DCNi G beads
# [17] = biological target: G protein heterotrimer αi3β1H6γ2 on DCNi beads; test: flow cytometry, standard assembly (bar 3) against GTPγS (bar 4)
# G protein heterotrimer αi3β1H6γ2 on DCNi beads, sequence (chain, as listed by the source, chain 1 of 3): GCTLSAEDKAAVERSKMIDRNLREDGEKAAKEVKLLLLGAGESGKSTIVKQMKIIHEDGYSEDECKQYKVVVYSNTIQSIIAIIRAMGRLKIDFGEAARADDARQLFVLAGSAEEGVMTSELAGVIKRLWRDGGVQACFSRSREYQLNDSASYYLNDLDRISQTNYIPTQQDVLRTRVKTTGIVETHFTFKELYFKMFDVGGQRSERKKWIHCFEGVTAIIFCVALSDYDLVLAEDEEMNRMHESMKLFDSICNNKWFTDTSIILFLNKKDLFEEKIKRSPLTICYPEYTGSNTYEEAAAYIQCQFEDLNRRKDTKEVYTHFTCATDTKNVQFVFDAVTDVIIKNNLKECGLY
# G protein heterotrimer αi3β1H6γ2 on DCNi beads, sequence (chain, as listed by the source, chain 2 of 3): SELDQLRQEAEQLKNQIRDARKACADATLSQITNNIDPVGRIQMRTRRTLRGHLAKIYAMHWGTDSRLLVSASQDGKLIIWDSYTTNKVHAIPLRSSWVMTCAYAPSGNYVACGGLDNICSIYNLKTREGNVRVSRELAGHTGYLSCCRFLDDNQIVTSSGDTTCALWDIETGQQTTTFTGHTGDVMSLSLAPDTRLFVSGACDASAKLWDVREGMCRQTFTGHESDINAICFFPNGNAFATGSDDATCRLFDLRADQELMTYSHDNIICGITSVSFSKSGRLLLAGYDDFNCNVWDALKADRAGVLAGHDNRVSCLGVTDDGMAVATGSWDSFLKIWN
# G protein heterotrimer αi3β1H6γ2 on DCNi beads, sequence (chain, as listed by the source, chain 3 of 3): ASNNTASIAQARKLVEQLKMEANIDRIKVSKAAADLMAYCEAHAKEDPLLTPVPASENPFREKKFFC
# T3 sequence (P08753 2-354, chain 1 of 3): as the sequence (chain, as listed by the source, chain 1 of 3) above
# T3 sequence (P29387 2-340, chain 2 of 3, further chain): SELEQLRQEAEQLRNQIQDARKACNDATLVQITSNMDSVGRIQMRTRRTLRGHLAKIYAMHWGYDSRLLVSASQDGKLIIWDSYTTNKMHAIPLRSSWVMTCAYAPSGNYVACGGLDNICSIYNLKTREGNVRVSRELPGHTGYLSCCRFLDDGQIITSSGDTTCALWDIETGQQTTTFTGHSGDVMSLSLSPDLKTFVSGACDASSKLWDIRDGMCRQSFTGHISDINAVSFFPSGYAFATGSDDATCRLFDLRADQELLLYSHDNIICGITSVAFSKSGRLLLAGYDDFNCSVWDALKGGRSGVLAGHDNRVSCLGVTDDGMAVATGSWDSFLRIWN
# T3 sequence (P63212 2-68, chain 3 of 3, further chain): as the sequence (chain, as listed by the source, chain 3 of 3) above
# β1H6γ2 dimer on DCNi beads, sequence (chain, as listed by the source, chain 1 of 2): as the sequence (chain, as listed by the source, chain 2 of 3) above
# β1H6γ2 dimer on DCNi beads, sequence (chain, as listed by the source, chain 2 of 2): as the sequence (chain, as listed by the source, chain 3 of 3) above
binder,measurement,setting,value
"FPR-Giα2 fusion protein (receptor, human;rat, Solubilized in dodecyl maltoside; also called FPR-αi2; FPR-Gαi2) METNSSLPTNISGGTPAVSAGYLFLDIITYLVFAVTFVLGVLGNGLVIWVAGFRMTHTVTTISYLNLAVADFCFTSTLPFFMVRKAMGGHWPFGWFLCKFVFTIVDINLFGSVFLIALIALDRCVCVLHPVWTQNHRTVSLAKKVIIGPWVMALLLTLPVIIRVTTVPGKTGTVACTFNFSPWTNDPKERINVAVAMLTVRGIIRFIIGFSAPMSIVAVSYGLIATKIHKQGLIKSSRPLRVLSFVAAAFFLCWSPYQVVALIATVRIRELLQGMYKEIGIAVDVTSALAFFNSCLNPMLYVFMGQDFRERLIHALPASLERALTEDSTQTSDTATNSTLPSAEVELQAKAAAMGCTVSAEDKAAAERSKMIDKNLREDGEKAAREVKLLLLGAGESGKSTIVKQMKIIHEDGYSEEECRQYRAVVYSNTIQSIMAIVKAMGNLQIDFADPQRADDARQLFALSCAAEEQGMLPEDLSGVIRRLWADHGVQACFGRSREYQLNDSAAYYLNDLERIAQSDYIPTQQDVLRTRVKTTGIVETHFTFKDLHFKMFDVGGQRSERKKWIHCFEGVTAIIFCVALSAYDLVLAEDEEMNRMHESMKLFDSICNNKWFTDTSIILFLNKKDLFEEKITQSPLTICFPEYTGANKYDEAASYIQSKFEDLNKRKDTKEIYTHFTCATDTKNVQFVFDAVTDVIIKNNLKDCGLF",total fluorescence to background ratio,[1],2.7 ratio
"For-MLFK (also: FITC conjugated, site not given here, everywhere else it is fMLFK-FITC; also called fMLFK-FITC; fluorescent ligand) [formyl-MLFK-FITC]",t1/2 (dissociation halftime),[2],14 s
same,t1/2 (dissociation halftime),[3],15 s
same,t1/2 (dissociation halftime),[4],14 s
same,Kd,[5],4.8 nM
same,Kd,[6],10 nM
same,Kd,[7],5 nM
same,Kd,[8],7 nM
same,Kd,[9],4 nM
same,Kd,[10],8 nM
same,t1/2 (dissociation halftime),[11],14 s
For-MLFF [fMLFF],EC50,FPR-GFP fusion protein [12],27 nM
same,Kd,[13],75 nM
same,ratio of Kd (for LR) to EC50 (for LRG formation),FPR-GFP fusion protein [14],2.8 ratio
B1,ratio of total signal to nonspecific signal,[15],3 ratio
same,ratio of total signal to nonspecific signal,Gαi3β4γ2H6-FLAG,3 ratio
same,signal to background,[16],≤ 4 ratio
B2,total binding to background ratio,[17],4.9 ratio
